Test results as given in the nanobody polyreactivity screen of Harvey et al. (2022).

Experiment: yeast display, Sf9 membrane polyspecificity reagent, FACS + sequencing; frameworks hold sequencing errors
In short: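 A nanobody's polyreactivity label depends on the gate it was sorted from. Yeast display cells were stained with 10% biotinylated, detergent-solubilized Sf9 membrane reagent for 1 hour at 4 °C, enriched on streptavidin microbeads and sorted by FACS. The low and high (top ~1%) gates were set on anti-HA fluorescence for expression and streptavidin fluorescence for reagent binding.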

Sequence	polyreactivity (PSR sort gate)
QVQLVESGGGLVQAGGSLRLSCAASGFIFPRYAMGWYRQAPGKERELVAGITSRGTGTYYADSVKGRFTISRDNAKNTVYLQMNSLKPEDTAVYYCARLSTKPLPYDYWGLGTQVTVSS	high polyreactivity
QVQLVESGGGLVQAGGSLRLSCAASGFIFPSNVMGWYRQATGKERELVAAISTRGGRTYYADSVKGRFTISRDNAKNTVYLQMNSLKPEDTAVYYCAASISRQGGVGYWGQGTQVTVSS	high polyreactivity
QVQLVESGGGLVQAGGSLRLSCAASGFIFPSYVMGWYRQAPWKERELVATISHSGGSTYYADSVKGRFTLSRDNAKNTVYLQMNSLKPEDTAVYYCATRRRGPYSPYSPYDYWGQGTQVTVSS	high polyreactivity
QVQLVESGGGLVQAGGSLRLSCAASGFIFPVYTMGWYRQAPGKERELVAAITQIGGSTHYADSVTGRFTISRDNAKNTVYLQMNSLKPEDTAVYYCNAVPSYGTEYDYWGQGTQVTVSS	low polyreactivity
QVQLVESGGGLVQAGGSLRLSCAASGFIFPYYAMGWYRQAPGQERELVAAITGGGSRTYYADSVKGRFTISRDNAKNTVYLQMNSLKPEDTAVYYCAKGLSTGRAYRGYDYWGQGTQVTVSS	high polyreactivity
QVQLVESGGGLVQAGGSLRLSCAASGFIFQGYTMGWYRQAAGKERELVAAITSSGRTYYADSVKGRFTISRDNAKNTVYLQMNSLKPEDTAVYYCNADFLPSVANDYWGQGTQVTVSS	low polyreactivity
QVQLVESGGGLVQAGGSLRLSCAASGFIFQHYAMGWYRQAPGKERELVAAISKSGGSTYYADSVKGRFTISRDNAKNTVYLQMNSLKPEDTAVYYCAKVAVAGRGSGNYINHRFDYWGQGTQVTVSS	high polyreactivity
QVQLVESGGGLVQAGGSLRLSCAASGFIFQPYAMGWYRQAPGKERELVAAITSRGGRTYYADSVKGRFTISRDNAMNTVYLLMNSLKPEDTAVYYCAKRYAVYVTHFSRIRWYNYWGQGTQVTVSS	low polyreactivity
QVQLVESGGGLVQAGGSLRLSCAASGFIFQPYAMGWYRQAPVKERELVAAITSRGGRTYYADSVKGRFTISRDNAKNTVYLQMNSLKPEDTAVYYCNADIYASEYYYWGQGTQVTVSS	low polyreactivity
QVQLVESGGGLVQAGGSLRLSCAASGFIFQRYAMGWYRQAPGKERELVAAITRTGGRTYYADSVKGRFTISRDNAKNTVYLQMNSLKPEDTAVYYCAADRTLSYEYWGQGTQVTVSS	high polyreactivity
QVQLVESGGGLVQAGGSLRLSCAASGFIFQSYAMGWYRQAPGKERELVASITRSGGSTYYADSVKGRFTISRDNAKNTVYLQMNSLKPEDTAVYYCNTYRNHYGWRKFNYWGQGTQVTVSS	high polyreactivity
QVQLVESGGGLVQAGGSLRLSCAASGFIFQTNVMGWYRQAPGKERELVAAISSGDSTYYADSVKGRFTISRDNAKNTVYLQMNSLKPEDTAVYYCAARRGTGSYSYRYPYGYDYWGQGTQVTVSS	low polyreactivity
QVQLVESGGGLVQAGGSLRLSCAASGFIFQYYAMGWYREAPGKERELVAAISKTGGSTYYADSVKGRFTISRDNAKNTVYLQMNSLKPEDTAVYYCAVARSAYYRGNHWGQGSQVTVSS	high polyreactivity
QVQLVESGGGLVQAGGSLRLSCAASGFIFQYYAMGWYRQAPGKERELVAAITSGGTTYYADSVKGRFTISRDNAKNTVYLQMNSLKPEDTAVYYCAAVFVNFYARFDYWGQGTQVTVSS	low polyreactivity
QVQLVESGGGLVQAGGSLRLSCAASGFIFRDNTMGWYRQAPGKEREFVAGITKSGGSTYYADSVKGRFTISRDNAKNTVYLQMNSLKPEDTAVYYCAAYVPYTRYDYWGQGTQVTVSS	high polyreactivity
QVQLVESGGGLVQAGGSLRLSCAASGFIFRDYAMGWYRQAPGKERELVAAIDYSGGSTNYADSVKGRFTISRDNAKNTVYLQMNSLKPEDTAVYYCNAEYTWHRGYEYWGQGTQVTVSS	low polyreactivity
QVQLVESGGGLVQAGGSLRLSCAASGFIFRDYVMGWYRQAPGKERELVAAISYRGGSTNYADSVKGRFTISRDNAKNTVYLQMNSLKPEDTAVYSCAADQVHKREYDYWGQGTQVTVSS	low polyreactivity
QVQLVESGGGLVQAGGSLRLSCAASGFIFRGNAMGWYRQAPGKERELVAAISKRGGSTNYADSVKGRFTISRDNAKNTVYLQMNSLKPEDTAVYYCNAEGIYRQPRGYVYRYDYWGQGTQVTVSS	high polyreactivity
QVQLVESGGGLVQAGGSLRLSCAASGFIFRGYAMGWYRQPPGKERELVATITNGGSTYYADSVKGRFTISRDNAKNTVYLQMNSLKPEDTAVYFCAAVTKFGEYAPGSKGYGYWGQGSQVTVSS	low polyreactivity
QVQLVESGGGLVQAGGSLRLSCAASGFIFRIYAMGWYRQAPGKERELVAAITWDGVSTYYADSVKGRFTISRDNAKNTVYLQMNSLKPEDTAVYYCAARKRSYPYYYWGQGTQVTVSS	high polyreactivity
QVQLVESGGGLVQAGGSLRLSCAASGFIFRNYAMGWSRQAPGKERELVAAITRSGTSTYYADSVKGRFTISRDNAKNTVYLQMNSLKPEDTAVYYCNAGWGLRLSWLGNYWGQGTQVTVSS	high polyreactivity
QVQLVESGGGLVQAGGSLRLSCAASGFIFRPYVMGWYRQAPGKERELVAAISRSGSSTYYADSVKGRFTISRDNAKNTVYLQMNSLQPEDTAVYYCARRTSQEFDYWGQGTQVTVSS	high polyreactivity

Sequence	polyreactivity (PSR sort gate)
QVQLVESGGGLVQAGGSLRLSCAASGFIFRQNAMGWYRQAPGKERELVAAITSSGGRTYYADSVKGRFTISRDNAKNTVYLQMNSLKPEDTAVYYCARRDYWGQGTQVTVSS	high polyreactivity
QVQLVESGGGLVQAGGSLRLSCAASGFIFRRNAMGWSRQAPRKERELVAAISSRGGTTYYADSVKGRFTISRDNAKNTVYLQMNSLKPEDTAVYYCNAVKFGATAYDYWGQGTQVTVSS	high polyreactivity
QVQLVESGGGLVQAGGSLRLSCAASGFIFRRNAMGWYRQAPGKERELVASIRSGGSTKYADSVKGRFTISRDNAKNTVYLQMNSLKPEDTAVYYCAKDRYHISFFYQMEYWGQGTQVTVSS	low polyreactivity
QVQLVESGGGLVQAGGSLRLSCAASGFIFRRYAMGSYRQAPGKERELVAAISGSGGRTYYADSVKGRFTISRDNAKNTVYLQMNSLKPEDTAVYYCAADHGSLLYDYWGQGTQVTVSS	high polyreactivity
QVQLVESGGGLVQAGGSLRLSCAASGFIFRRYAMGWYRQAPGKERELVAAISGRGASTYYGDSVKGRFTISRDNAKNNVYVQMNSLKPEDTAAYYCNAVPDNLNYDYWGQGTQVTVSS	high polyreactivity
QVQLVESGGGLVQAGGSLRLSCAASGFIFRRYAMGWYRQPPGKERELVAAISGSGGRTYYADSVKGRFTISRDNAKNTVYLQMNSLKPEDTAVYYCAADHGSLLYDYWGQGTQVTVSS	high polyreactivity
QVQLVESGGGLVQAGGSLRLSCAASGFIFRRYTMGWYTQAPGKERELVATITRSVNTDYADSVKGRFTISRDNAKNTVYLQMNSLKPEDTAVYYCAARKYYYFPVAYDYWGQGTQVTVSS	high polyreactivity
QVQLVESGGGLVQAGGSLRLSCAASGFIFRSYAMGWYRQAPGKEREFVAAITTRGTGTYYADSVKGRFTISRDNAKNTVYLQMNSLKPEDTAVYDCAARRGWGDDYWGQGTQVTVSS	high polyreactivity
QVQLVESGGGLVQAGGSLRLSCAASGFIFRSYAMGWYRQAPGKEREFVASISSRGGTTYYADSVKGRFTISRDNAKNTVYLQMNSLKTEDTAVYYCYAKRRYGPDKYDYWGQGTQVTVSS	high polyreactivity
QVQLVESGGGLVQAGGSLRLSCAASGFIFRSYAMGWYRQAPGKERELVAAISRSGGSTYYADSVKGRFTISRDNAKNTVYLQMNSLKPEDTAVYYCNTARRDREVDYWGQGTQVTVSS	high polyreactivity
QVQLVESGGGLVQAGGSLRLSCAASGFIFRSYAMGWYRQAPGKERELVAVISRRGVNTHYADSVKGRFTISRDNAKNTVNLQMNSLKPEDTAVYYCAKGLTALGDYWGQGTQVTVSS	high polyreactivity
QVQLVESGGGLVQAGGSLRLSCAASGFIFRSYDMGWYRQAPGKERELVAAITRGGRTYYADSVKGRFTISRDNAKNTVYLQMNSLKPEDTAVYYCAARGTHVADGYYWGQGTQVTVSS	high polyreactivity
QVQLVESGGGLVQAGGSLRLSCAASGFIFRSYVMGWYRQAPGKEREFVAVITSSGGRTYYADSVKGRFTISRDNAKNTVYLQMNSLKPEDTAVYYCAATRRYPPRRVWYDYWGQGTEVTVSS	high polyreactivity
QVQLVESGGGLVQAGGSLRLSCAASGFIFRTYAMGWYRQAPGKERELVATITGDGSTNYADSVKGRFTISRDNAKNTVYLQMNSLKPEDTAVYYCSRDDRLAGDYWGQGTQVTVSS	low polyreactivity
QVQLVESGGGLVQAGGSLRLSCAASGFIFRVNAMGWYRQAPGKERELVATITWNGGSTYYADSVKGRFTISRDNAKNTVYLQMNSLKPEDTAVYYCNRVRYRGYYPGPYSYSYDYWGQGTQVTVSS	low polyreactivity
QVQLVESGGGLVQAGGSLRLSCAASGFIFRVYTMVWYRQAPGKERELVAAISYRGGRTYYADSVKGRFTISRDNAKNTVFLQMNSLKPEDTAVYYCAADRVNREFDYWGQGTQVTVSS	high polyreactivity
QVQLVESGGGLVQAGGSLRLSCAASGFIFRWYAMGWYRQAPGKERDLVATISSGGSTYYADSVKGRFTISRDNAMNTFYLQMISLKPEDTAVYYCAARFHYRGALYYYWGQGTQVTVSS	high polyreactivity
QVQLVESGGGLVQAGGSLRLSCAASGFIFRWYAMGWYRQAPGKERELVAAISRSGDSTYYADSVKGRFTISRDNAKNTVYLQMNSLKPEETAVYYCAADDRYYTYGYDYWGQGTQVTVSS	low polyreactivity
QVQLVESGGGLVQAGGSLRLSCAASGFIFRYNAMGWYRQAPGKEREFVAAISQGGASTYYADSVKGRFTISRVNAKNTVYLQINSLKPEDTAVYYCAREPSIFTPSYDYWGQGTQVTVSS	low polyreactivity
QVQLVESGGGLVQAGGSLRLSCAASGFIFRYNAMGWYRQAPGKERELVAAIDSGGSTYYADSVKGRFTISRDNAKNTVYLQMNSLKPEDTAVYYCNAVHEASYAGVDYWGQGTQVTVSS	low polyreactivity
QVQLVESGGGLVQAGGSLRLSCAASGFIFRYNAMGWYRQAPGKERELVAAISWNGGRTYYADSVKGRFTISRDNAKNTVYLQMNSLKPEDTAVYYCAAELSSYFFSAGYDYWGQGTQVTVSS	high polyreactivity
